Measurements: PMC8354476, “Acyl-CoA oxidase ACOX-1 interacts with a peroxin PEX-5 to play roles in larval development of Haemonchus contortus” (PLoS Pathogens, 2021)

Substrate: CCCCCCCCCCCCCCCC(=O)SCCNC(=O)CCNC(=O)[C@H](O)C(C)(C)COP(=O)(O)OP(=O)(O)OC[C@H]1O[C@@H](n2cnc3c(N)ncnc32)[C@H](O)[C@@H]1OP(=O)(O)O
Test: purified protein
Type: biochemical, Haemonchus contortus
Conditions: 10 μM FAD, 50 mM potassium phosphate
[1] = pH 7.5, 42°C (optimum conditions)

| Protein | Km [1] | Km (pH 7.5, 37°C (optimum conditions)) |
| --- | --- | --- |
| rHc-ACOX-1.2 (Haemonchus contortus) (protein, N-terminal FLAG tag, pcDNA3.1, expressed in HEK293T cells, purified on anti-FLAG magnetic beads; locus chromosome IV: 9789018-9796292; Glu206 active site; C-terminal PTS1 (SKL)) MPFRGITVGDIGPKMAYNGVDNGFLAFHHYRIPRNNMLMKHVKVTPDGKYVPPAHAKVGYSAMVHVRAHMISTQAAFLAQALTTAIRYSAIRRQGEIQPGQGEVKILEYQTQQHRLFPQLARAYAFIFTGQAVRVIFQRVQKDVARGKVDEMAKLHYISSGLKAVVTYLTGQGIEQARMSCGGHGYSKASNMSELYGVAIGGATYEGENMVMLQQLARYLMKSAEAAKSGRAVGKLVDYLVRSSEQRSAIDRQPDHDYSAHLKAFDKAAKLQVMKAYERMQSLRAQGLLEEEAWNANAVELNRAARVHTRQYIARTFDEHVKAVVHGPCREVLLDLLHLHLNYELLDMAYYLLEDGYLSGQQLDYMKEDMYRLLARLRPNIVSLVDSWDFSDHELRSVLGRRDGHVYENLYKWAQESELNRTQVLPTFEKYLKPMMKQAREQSKL | 6.83 µM |  |
| rHc-ACOX-1.1 (Haemonchus contortus) (protein, full-length transcript 2019 nt; N-terminal FLAG tag, pcDNA3.1, expressed in HEK293T cells, purified on anti-FLAG magnetic beads; locus chromosome IV: 9780094-9786809; Thr151, Gly190, Glu433 predicted sites; C-terminal PTS1 (SKL)) MPLNKLLRDGDNEDLAEERRKATFDTDEMAAIIWEGKERVRRRREITKKVNEYTELHDPYCQAFMTRHEEVENAARKITKMFSLIDKLGVNPTNAADMAHLTSEVIGLYGHPLALHAVMFIPSLQAQCADDQMHWLKKAMSRQIIGTYAQTELGHGTNLRKLETTATHDANTQEFVLHSPTRTAMKWWPGNLGKSANHAVVVACLIIDGKNYGPHNFIVPLRDPETHMPLKGITVGDIGPKMATGPVDNGFLSFDHYRIPRTNMLMKHAKVTPEGKYIPPAHAKVGYSAMVHVRSHMISDQAKFLAQALTTAIRYSAIRRQGEIQPGDGEVKILEYQTQQYRLLPQLARAYAFSFTGRAVRDLYLRVQKDVAKGKVDEMAELHYITSGLKAVVTHLTGEGISQARMSCGGHGYSKASNMPDLYGIAVADCTYEGENMVMLQQLARYLMRAAGEAEKGRALGRLVNYLVEPSDIHSSIDRQLDYDYKAHLKAFDKAAKLQVMKAYERMRALKAQGLSEEDAWNANAVELNRAARVHTRQYIAHQFYEQVSSVTDGRCREVPRDLLHLHLNYEILDMAYYLLEDGFLSGQQMDYMKEDMYRLLAKLRPNAVSLVDSWDISDHELRSVLGRRDGHVYENLYKWAQESELNRTQVLPTFEKYLKPMMMEAHAQSKL |  | 78.79 µM |
| rHc-ACOX-1.3 (Haemonchus contortus) (protein, N-terminal FLAG tag, pcDNA3.1, expressed in HEK293T cells, purified on anti-FLAG magnetic beads; Glu206 active site; C-terminal PTS1 (SKL)) MPFRGITVGDIGPKMAYNGVDNGFLAFDHYRIPRNNMLMKHVKVTPEGKYVPPAHAKVGYSAMVHVRAHMISTQAAFLAQALTTAIRYSAIRRQGEIQPGRGEVKILEYQTQQHRLFPQLARAYAFIFTGQAVRVIFQRVQKDVARGKVDEMAELHYISSGLKAVVTYLTGQGIEQARMSCGGHGYSKASNMSELYGVAIGGATYEGENMVMLQQLARYLMKSAEAAKNGRAVGKLVDYLVRSSEQRSAIDRKPDHDYTAHLKAFDKAAKLQVMKAYERMQSLRARGLTEEEAWNANAVELNRAARVHTRQYIARTFDEHVKAVVHGPCREVLLDLLYLHLNYELLDMAYYLLEDGYLSGQQMDYMKEDMYRLLARLRPNIVSLVDSWDFSDHELRSVLGRRDGHVYENLYKWAQESELNRTQVLPTFEKYLKPMMKQAREQSKL | 12.64 µM |  |
